This is an account of results in publication PMC3327674, “Structural and Functional Characterization of Mature Forms of Metalloprotease E495 from Arctic Sea-Ice Bacterium Pseudoalteromonas sp. SM495” (PLoS ONE, 2012).

Assay [1] addresses C-phycocyanin (Synechocystis sp. strain PCC6803) (UniProt Q54715). The experiment in a line: SPR; BIACORE 3000, 25°C; CPC amine-coupled on a CM5 chip; PPC domains 0.25-8 µM at 30 µl/min; regeneration with 20 mM NaOH; global fits, BIAevaluation 4.1.
Assay [2] has as its target GST-fused PPC1 domain of metalloprotease E495 (Pseudoalteromonas sp. SM495). The experiment in a line: pull-down; GST-fused PPC domain (or mutant) attached to glutathione-agarose resin; 0.1 mg/ml CPC or casein added, 4°C, 12 h with shaking; substrate remaining in the supernatant analysed by 12.5% SDS-PAGE and ImageJ.
Assay [3] concerns the target GST-fused PPC2 domain of metalloprotease E495 (Pseudoalteromonas sp. SM495). Described as above.
Assay [4] concerns the target GST-fused PPC12 (PPC1 and PPC2 domains) of metalloprotease E495 (Pseudoalteromonas sp. SM495). The description is as above.
Assay [5] addresses alpha casein.

C-phycocyanin (Synechocystis sp. strain PCC6803), sequence (Q54715 whole entry, chain 1 of 2, other chains not shown, the tested form may be a part): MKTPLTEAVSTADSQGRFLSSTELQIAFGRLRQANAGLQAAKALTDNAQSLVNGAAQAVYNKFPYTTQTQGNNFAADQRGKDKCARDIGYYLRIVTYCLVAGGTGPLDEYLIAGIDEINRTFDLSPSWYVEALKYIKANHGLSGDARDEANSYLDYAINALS

One may read the Kd as a measure of binding affinity in units of concentration. A low value points to tighter binding. As a reminder, the koff is the rate constant with which the complex falls apart. The low end stands for a long-lived complex, the high end for a short-lived complex. A word on the kon: it is a measure of how fast the partners come together. A higher kon goes with faster complex formation. For the substance “GST-fused PPC1 domain of metalloprotease E495 (domain or fragment)”, in assay [1], the Kd was 770 nM, the koff is 0.0158 s⁻¹ and the kon came out at 20400 M⁻¹ s⁻¹.
Regarding alpha casein (natural protein), the percent bound in assay [2], in assay [3] and in assay [4] was 30% in each case.
“GST-fused PPC2 domain of metalloprotease E495 (domain or fragment)”: in assay [1], the Kd stood at 2470 nM, the koff turned out to be 0.0162 s⁻¹ and the kon is 6560 M⁻¹ s⁻¹.
In assay [5], “E495-M-C1 (mature form of metalloprotease E495 containing the catalytic domain and the PPC1 domain) (enzyme)” showed a K m of α-casein hydrolysis at 50°C (non-linear fit, Michaelis-Menten) of 18 µM.
“C-phycocyanin (from UniProt Q54715 1-162; Q54714 1-172) (complex)”: the percent bound in assay [2], in assay [3] and in assay [4] was 30% in each case.
Turning to “E495-M (mature form of metalloprotease E495 containing only the catalytic domain) (enzyme)”, the K m of α-casein hydrolysis at 50°C (non-linear fit, Michaelis-Menten) in assay [5] was 67 µM.
